# Source: IntAct's records for PubMed 22921914
# B1: Protein SCARECROW (Arabidopsis thaliana (Mouse-ear cress)), Q9M384 (parent)
# chain: MAESGDFNGGQPPPHSPLRTTSSGSSSSNNRGPPPPPPPPLVMVRKRLASEMSSNPDYNNSSRPPRRVSHLLDSNYNTVTPQQPPSLTAAATVSSQPNPPLSVCGFSGLPVFPSDRGGRNVMMSVQPMDQDSSSSSASPTVWVDAIIRDLIHSSTSVSIPQLIQNVRDIIFPCNPNLGALLEYRLRSLMLLDPSSSSDPSPQTFEPLYQISNNPSPPQQQQQHQQQQQQHKPPPPPIQQQERENSSTDAPPQPETVTATVPAVQTNTAEALRERKEEIKRQKQDEEGLHLLTLLLQCAEAVSADNLEEANKLLLEISQLSTPYGTSAQRVAAYFSEAMSARLLNSCLGIYAALPSRWMPQTHSLKMVSAFQVFNGISPLVKFSHFTANQAIQEAFEKEDSVHIIDLDIMQGLQWPGLFHILASRPGGPPHVRLTGLGTSMEALQATGKRLSDFADKLGLPFEFCPLAEKVGNLDTERLNVRKREAVAVHWLQHSLYDVTGSDAHTLWLLQRLAPKVVTVVEQDLSHAGSFLGRFVEAIHYYSALFDSLGASYGEESEERHVVEQQLLSKEIRNVLAVGGPSRSGEVKFESWREKMQQCGFKGISLAGNAATQATLLLGMFPSDGYTLVDDNGTLKLGWKDLSLLTASAWTPRS
# partner: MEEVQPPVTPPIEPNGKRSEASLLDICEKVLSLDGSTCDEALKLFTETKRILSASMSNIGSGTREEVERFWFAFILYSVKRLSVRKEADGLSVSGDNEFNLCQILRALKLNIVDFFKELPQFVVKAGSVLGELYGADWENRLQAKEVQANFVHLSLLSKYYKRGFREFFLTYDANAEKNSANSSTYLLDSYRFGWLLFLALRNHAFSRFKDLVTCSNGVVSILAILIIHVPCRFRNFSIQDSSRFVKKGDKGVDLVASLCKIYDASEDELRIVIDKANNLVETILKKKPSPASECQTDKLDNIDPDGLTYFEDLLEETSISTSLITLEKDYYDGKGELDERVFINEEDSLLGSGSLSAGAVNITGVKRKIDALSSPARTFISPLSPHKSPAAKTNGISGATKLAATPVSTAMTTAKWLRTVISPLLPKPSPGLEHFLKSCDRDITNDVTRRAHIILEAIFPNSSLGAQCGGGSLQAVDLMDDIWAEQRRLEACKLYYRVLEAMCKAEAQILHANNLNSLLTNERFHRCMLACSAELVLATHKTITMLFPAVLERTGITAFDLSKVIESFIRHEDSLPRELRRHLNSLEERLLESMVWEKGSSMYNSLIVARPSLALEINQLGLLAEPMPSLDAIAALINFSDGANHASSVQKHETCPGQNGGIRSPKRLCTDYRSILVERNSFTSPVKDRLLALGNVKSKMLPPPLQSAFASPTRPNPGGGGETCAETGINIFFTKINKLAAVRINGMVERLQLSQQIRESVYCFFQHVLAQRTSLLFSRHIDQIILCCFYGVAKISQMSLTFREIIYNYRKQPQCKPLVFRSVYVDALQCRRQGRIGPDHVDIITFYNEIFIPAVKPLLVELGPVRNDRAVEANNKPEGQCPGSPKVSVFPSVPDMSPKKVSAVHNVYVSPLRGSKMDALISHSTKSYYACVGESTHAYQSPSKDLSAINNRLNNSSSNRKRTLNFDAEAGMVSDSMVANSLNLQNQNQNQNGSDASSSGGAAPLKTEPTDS
# Variants of: B1
# Details: with rbr1_arath RBR1, Q9LKZ3
row,effect of a mutation on the interaction,Variant
1,disrupting interaction strength,L295A;E299A
